Measurements from US20260056186A1 (JIANGSU HENGRUI PHARMACEUTICALS, published 2026).

Key:
[1] = molecular target: T1, recombinant human APRIL (R&D cat: 5860-AP-010/CF) (human, UniProt O75888 105-250, limits assumed); experiment: cell-based or functional assay
T1 sequence (looked up): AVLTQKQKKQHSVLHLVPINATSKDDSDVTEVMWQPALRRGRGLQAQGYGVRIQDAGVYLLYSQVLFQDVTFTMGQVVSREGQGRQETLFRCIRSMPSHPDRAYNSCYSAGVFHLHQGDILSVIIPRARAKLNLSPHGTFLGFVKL

[2] = molecular target: BAFF (PeproTech, Cat: 310-13) (UniProt Q9Y275 134-285); experiment: ELISA, BAFF coated at 1 ug/mL, anti-human Fc-HRP, OD450
Protocol: (§1) The capabilities of B613301, B613302, and B613303, which are fusion proteins of anifrolumab and TACI-BCMA, to bind to BAFF and APRIL were assessed by ELISA as follows: [0548] BAFF (PeproTech, Cat: 310-13) or ARPIL (Acro Biosystems, Cat: APL-H52D1) was diluted to 1 μg/mL with PBS, and a 96-well plate (Costar, Cat: 3590) was coated with the dilution overnight at 4° C. The plate was washed with PBST and blocked with Blocking Buffer (PBST containing 1% BSA) at 37° C. for 1 h. The plate was tapped. The test antibodies were diluted with Blocking Buffer. Incubation was performed at 37° C. for 1.5 h. The plate was washed with PBST. An HRP-mouse anti-human Fc antibody (GenScript, Cat: A01854-200) was diluted with Blocking Buffer. Incubation was performed at 37° C. for 40 min. The plate was washed with PBST. 100 μL of TMB substrate solution (Biopanda, Cat: TMB-S-003) was added, and color development was performed at 37° C. for 3 min. 100 μL of ELISA stop solution (Solarbio, Cat: C1058) was added. OD450 was measured.

[3] = molecular target: T2, APRIL (Acro Biosystems, Cat: APL-H52D1) (UniProt O75888 115-250, limits assumed); experiment: ELISA, APRIL coated at 1 ug/mL, anti-human Fc-HRP, OD450
T2 construct: also called ARPIL
T2 sequence (looked up): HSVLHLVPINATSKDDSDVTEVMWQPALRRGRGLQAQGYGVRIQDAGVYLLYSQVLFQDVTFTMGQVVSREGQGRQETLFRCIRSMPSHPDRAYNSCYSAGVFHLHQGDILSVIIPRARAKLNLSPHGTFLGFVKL
Protocol: The capabilities of fusion proteins B606401, B637302, B746201, and B805201 to bind to BAFF and APRIL were assessed by ELISA as follows:
as §1, with “BAFF” for “The capabilities of B613301, B613302, and B613303, which are fusion proteins of anifrolumab and TACI-BCMA, to bind to BAFF and APRIL were assessed by ELISA as follows: [0548] BAFF”, “plate” for “plate (Costar, Cat: 3590)”

[4] = molecular target: T3, BAFF (Sino biological, 10056-HNCH) (UniProt Q9Y275 134-285, biotinylated in the blocking ELISA (site not stated)); experiment: competition ELISA: fusion protein pre-mixed with biotinylated BAFF, added to coated BAFF-R
T3 construct: also called BLyS
Protocol: The above TACI-Fc fusion proteins' function of blocking the binding of BAFF to BAFF-R was further assessed as follows: The receptor protein was diluted with a pH 7.4 PBS (BasalMedia, B320) buffer to 2 μg/mL, and the resulting dilution was added to a 96-well microplate (Corning, 3590) at 100 μL/well. The plate was incubated overnight at 4° C. After the liquid was discarded, 1% Casein blocking solution (Thermo, 37528) was added at 200 μL/well for blocking, and the plate was incubated at 37° C. for 2 h. After the blocking, the blocking solution was discarded, and the plate was washed 3 times with a PBST buffer (pH 7.4 PBS containing 0.1% tween-20) and set aside for later use. A biotinylated ligand protein at a fixed concentration was mixed with a serially diluted antibody or fusion protein, and the mixture was pre-incubated at 37° C. for 30 min and then added to the blocked microplate. The plate was incubated at 37° C. for 1.5 h. After the incubation, the plate was washed 3 times with PBST, and streptavidin-HRP (Invitrogen, 434323, diluted in a 1:4000 ratio) was added at 100 μL/well. The plate was incubated at 37° C. for 1 h. The supernatant was removed. […] The absorbance at 450 nm was measured using a microplate reader. Curves for the inhibition of the binding of the ligand to the receptor were fitted using software, and IC₅₀ values were calculated. […]

Flow cytometry proliferating B cell proportion (%), mean value, APRIL-induced, drug at 4.12 nM (IgG1: 55.30) [1]: 48.1%
Flow cytometry proliferating B cell proportion (%), mean value, APRIL-induced, drug at 12.35 nM (IgG1: 54.80) [1]: 49.2%
Flow cytometry proliferating B cell proportion (%), mean value, APRIL-induced, drug at 37.04 nM (IgG1: 56.63) [1]: 50.1%
Flow cytometry proliferating B cell proportion (%), mean value, APRIL-induced, drug at 111.11 nM (IgG1: 55.83) [1]: 50.3%
Flow cytometry proliferating B cell proportion (%), mean value, APRIL-induced, drug at 333.33 nM (IgG1: 56.27) [1]: 49.1%
Flow cytometry proliferating B cell proportion (%), mean value, APRIL-induced, drug at 1000.00 nM (IgG1: 53.27) [1]: 46.3%
EC50 [2]: 0.801 nM
EC50 [3]: 0.536 nM
Emax [3]: 2.98
IC50 [4]: 27.5 nM
B1: Telitacicept (RCT-18) (Fc fusion)
chain: SRVDQEERFPQGLWTGVAMRSCPEEQYWDPLLGTCMSCKTICNHQSQRTCAAFCRSLSCRKEQGKFYDHLLRDCISCASICGQHPKQCAYFCENKLRSPVNLPPELDKTHTCPPCPAPEAEGAPSVFLFPPKPKDTLMISRTPEVTCVVVDVSHEDPEVKFNWYVDGVEVHNAKTKPREEQYNSTYRVVSVLTVLHQDWLNGKEYKCKVSNKALPSSIEKTISKAKGQPREPQVYTLPPSRDELTKNQVSLTCLVKGFYPSDIAVEWESNGQPENNYKTTPPVLDSDGSFFLYSKLTVDKSRWQQGNVFSCSVMHEALHNHYTQKSLSLSPGK
notes: Positive control TACI-Fc; also called RC18
